Reference: PMC9546566

Target: CRY1(Human)-3×FLAG (human) (UniProt Q16526)
Assay: co-IP

Sequence of UniProt Q16526 (Q16526 whole entry): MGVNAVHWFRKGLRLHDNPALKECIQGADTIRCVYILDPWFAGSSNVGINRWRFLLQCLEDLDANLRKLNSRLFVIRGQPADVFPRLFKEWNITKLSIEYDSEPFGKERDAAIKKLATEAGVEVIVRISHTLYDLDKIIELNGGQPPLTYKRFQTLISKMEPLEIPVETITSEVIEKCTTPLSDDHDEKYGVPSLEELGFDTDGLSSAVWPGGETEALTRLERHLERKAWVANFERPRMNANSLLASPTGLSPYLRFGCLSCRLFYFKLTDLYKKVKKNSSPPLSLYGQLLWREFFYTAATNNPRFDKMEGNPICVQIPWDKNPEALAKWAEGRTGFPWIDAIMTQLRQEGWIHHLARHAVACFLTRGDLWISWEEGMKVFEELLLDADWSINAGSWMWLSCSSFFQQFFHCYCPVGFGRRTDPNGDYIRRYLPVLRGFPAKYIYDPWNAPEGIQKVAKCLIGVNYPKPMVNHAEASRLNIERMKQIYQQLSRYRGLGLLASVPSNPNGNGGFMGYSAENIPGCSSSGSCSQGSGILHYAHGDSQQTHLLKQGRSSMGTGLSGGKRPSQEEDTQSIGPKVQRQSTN

Substance: PER2(Loris)-3×HA (natural protein)
- ability to bind with CRY in co-IP (quantity and unit not named): 35.2
